Target: Murine ΔIBB-importin α1 (mouse, UniProt P52293 70-529)
Experiment: crystal structure

binding result: binds
Binder: LKEKKKRTVAEEDQLHLDGQENKRRRHDSS [Pom121NLS(291-320), GST cleaved off]
